From publication PMC12102759

B1: PIP5K1C peptide 640-655 (Phosphatidylinositol 4-phosphate 5-kinase type-1 gamma), 16-mer library wild type / TLN1 PTB (TLN1 Phosphotyrosine-binding (PTB) domain, residues 309-401) (parent)
chain 1: FPTDERSWVYSPLHYS
chain 2: GVSFFLVKEKMKGKNKLVPRLLGITKECVMRVDEKTKEVIQEWNLTNIKRWAASPKSFTLDFGDYQDGYYSVQTTEGEQIAQLIAGYIDIILK
B2: PEX5 peptide 108-123 (Peroxisomal targeting signal 1 receptor), 16-mer library wild type / PEX14 Pex14 (PEX14 PEX14, residues 16-84) (parent)
chain 1: GVADLALSENWAQEFL
chain 2: TPGSENVLPREPLIATAVKFLQNSRVRQSPLATRRAFLKKKGLTDEEIDMAFQQSGTAADEPSSLGPAT
B3: AMOTL2 peptide 66-81 (Angiomotin-like protein 2), 16-mer library wild type / TNKS ANK (TNKS 12 ANK repeats, residues 174-649) (parent)
chain 1: LQQATRQEPQGQEHQG
chain 2: TGVPAVSGALRELLEACRNGDVSRVKRLVDAANVNAKDMAGRKSSPLHFAAGFGRKDVVEHLLQMGANVHARDDGGLIPLHNACSFGHAEVVSLLLCQGADPNARDNWNYTPLHEAAIKGKIDVCIVLLQHGADPNIRNTDGKSALDLADPSAKAVLTGEYKKDELLEAARSGNEEKLMALLTPLNVNCHASDGRKSTPLHLAAGYNRVRIVQLLLQHGADVHAKDKGGLVPLHNACSYGHYEVTELLLKHGACVNAMDLWQFTPLHEAASKNRVEVCSLLLSHGADPTLVNCHGKSAVDMAPTPELRERLTYEFKGHSLLQAAREADLAKVKKTLALEIINFKQPQSHETALHCAVASLHPKRKQVTELLLRKGANVNEKNKDFMTPLHVAAERAHNDVMEVLHKHGAKMNALDTLGQTALHRAALAGHLQTCRLLLSYGSDPSIISLQGFTAAQMGNEAVQQILSESTPIRTSD
B4: PAIP1 peptide 124-139 (Polyadenylate-binding protein-interacting protein 1), 16-mer library wild type / PABPC1 PABC (PABPC1 PABC domain, residues 544-623) (parent)
chain 1: LMSKLSVNAPEFYPSG
chain 2: PLTASMLASAPPQEQKQMLGERLFPLIQAMHPTLAGKITGMLLEIDNSELLHMLESPESLRSKVDEAVAVLQAHQAKEAA
B5: TPTE2 peptide 92-107 (Phosphatidylinositol 3,4,5-trisphosphate 3-phosphatase TPTE2), 16-mer library wild type / TLN1 PTB (TLN1 Phosphotyrosine-binding (PTB) domain, residues 309-401) (parent)
chain 1: LADLIFTDSKLYIPLE
chain 2: B1 chain 2

Variants of: B1
Assay: proteomic peptide phage display deep mutational scan (ProP-PD DMS): M13 P8 16-mer library selected against immobilised GST-tagged bait for four days (rounds), NGS of the eluted pools per day and pseudo-replica
Conditions: with TLN1 PTB (TLN1 Phosphotyrosine-binding (PTB) domain, residues 309-401); bait immobilised on MaxiSorp plates (10 µg), library pre-cleared on GST, 2 h binding at 4 °C, five washes; one round per day, days 1-4; value from days 2 and 3; keep out of graded; scale: average fractional NGS count over selection days 2 and 3

Screen value: each site, then its substitutions
chain 1 L13: S 0.000183; D 0; G 0.000132; F 0.00025; M 0.000592; Q 5.12e-05; N 4.75e-05; W 0.00176; I 0.000497; Y 0.000435; A 0.000116; V 0.00019
chain 1 E5: A 0.000188; W 0.000904; L 0.00192; G 0.000212; F 0.000369; N 0.00102; Q 6.1e-05; Y 0.000182; T 0.000451; I 0.000716; M 0.000263; H 0.000485; S 0.000272; V 0.00021; P 0.00165; K 0.000102
chain 1 P2: L 0.000825; F 2.4e-05; Q 7.98e-05; W 0.000111; V 0.000569; D 0.000759; E 0.000182; N 0.000183; S 0.000281; G 9.49e-05; R 5.46e-05; H 2.4e-05; A 4.1e-05; T 0.000173
chain 1 D4: V 5.15e-05; S 0.000264; W 8.26e-05; N 3.05e-05; Q 0.000121; L 0.000325; T 0.000121; F 0.00015; A 0.000109; I 7.24e-05; R 0.000156; G 0.000716; H 0.000241; E 2.74e-05; M 2.74e-05; P 7.86e-05
chain 1 H14: A 0.000225; T 0.00119; N 3.05e-05; K 0.00016; S 0.000388; M 0.00119; L 9.59e-05; R 0.000159; E 0.000433; Q 0.000124; G 0.00022; V 0.000348; D 0.000394; W 5.14e-05; I 4.44e-05; P 0.000231; F 2.74e-05; Y 0.000112

Variants of: B2
Assay: as above
Conditions: with PEX14 Pex14 (PEX14 PEX14, residues 16-84); bait immobilised on MaxiSorp plates (10 µg), library pre-cleared on GST, 2 h binding at 4 °C, five washes; one round per day, days 1-4; value from days 2 and 3; scale: average fractional NGS count over selection days 2 and 3

Screen value: each site, then its substitutions
chain 1 N10: P 0.00066; L 0.000191; G 0; T 0.000176; M 6.63e-05; I 0.000414; S 0.000139; F 0.000356; D 0; V 0.000297; Y 0.00069; W 0.000211; K 0.000111
chain 1 E14: T 0.000432; F 0.000333; S 0.00161; K 0.00049; P 0; Y 0.00013; L 0.000529; Q 0.00136; A 0.00268; H 0.000765; V 0.000334; W 0.00347; G 0.000243; I 0.000908; R 0.00542; D 0.000196
chain 1 W11: Y 0.00018; F 0
chain 1 A12: R 0; F 0.000389; H 0.000439; S 0.000254; T 0.000373; D 0; G 0.000152; V 0; I 0.000211; P 0; W 6.63e-05
chain 1 F15: Y 0; I 0; W 0.000382; H 0.00727; K 0; L 0.000134
chain 1 Q13: T 0.000462; G 0.000163; L 0.000475; H 0.000362; W 0.000116; Y 0.00131; F 0; P 0.000626; R 0.000241; E 0.000434
chain 1 D4: N 0; V 0; S 0.00106; Q 0.000734; K 0; L 0.00112; T 0; I 9.56e-05; P 0; E 0.000293; A 0.000207; W 0.000313
chain 1 S8: D 0; E 0.000967; A 0.000717; K 0; Q 0; H 0.0106; Y 0.0012; P 9.07e-05; I 0.00069; W 9.4e-05; G 0.000241
chain 1 V2: R 0; Y 0.00067; K 0; W 0; I 0; N 0; Q 0.000476; T 0; E 0.000749
chain 1 A6: Q 0.000383; Y 0; H 0.000488; E 0; F 0.000385; V 0; L 0.000211
chain 1 L5: G 0; F 0; S 0.000191; Y 0.000821; D 0.000324; N 0; V 0.00065; W 0.000435
chain 1 L16: W 0.00162; D 0; F 0; V 0.00389; I 0; N 0; G 0.00105; H 0.000215; E 0.00013; P 0.000186; R 0.000857; K 0.000183
chain 1 L7: N 0; V 0.000339; S 0.00013; K 0.000262; Q 0; H 0; P 0.000675; G 0.000778
chain 1 A3: S 0.000118; W 7.47e-05; E 7.71e-05; D 0; Q 0.000248; F 0; K 0.000328; P 0.000212; R 0; H 0.000109
chain 1 E9: Q 0; R 0; Y 9.07e-05; G 0.000125; V 0.000378; F 0.000305; I 0; M 0.000152; T 9.07e-05; D 0.000711; L 0.000321; S 0; N 0.000239

Variants of: B3
Assay: as above
Conditions: with TNKS ANK (TNKS 12 ANK repeats, residues 174-649); bait immobilised on MaxiSorp plates (10 µg), library pre-cleared on GST, 2 h binding at 4 °C, five washes; one round per day, days 1-4; value from days 2 and 3; keep out of graded; scale: average fractional NGS count over selection days 2 and 3

Screen value, by site and new letter:
chain 1 R6: S 6.11e-05
chain 1 T5: P 5.25e-05; A 2.97e-05; K 6.67e-05; E 5.19e-05; R 0

Variants of: B4
Assay: as above
Conditions: with PABPC1 PABC (PABPC1 PABC domain, residues 544-623); bait immobilised on MaxiSorp plates (10 µg), library pre-cleared on GST, 2 h binding at 4 °C, five washes; one round per day, days 1-4; value from days 2 and 3; keep out of graded; scale: average fractional NGS count over selection days 2 and 3

Screen value: each site, then its substitutions
chain 1 V7: K 0; I 0.00011; T 0.000112; L 1.45e-05; M 0
chain 1 F12: D 0; A 0
chain 1 S15: L 0.000141
chain 1 L5: S 0; I 6.08e-05; V 0; E 0.00011; F 7.31e-05; Y 5.13e-05
chain 1 N8: I 9.39e-05; V 0.000243; K 0; Q 0.000156; H 0.000197
chain 1 P10: V 0.000185; W 0
chain 1 G16: P 0.000264; L 0.000165
chain 1 M2: D 9.64e-06; R 0.000185; H 0.000247; Y 0; F 1.57e-05
chain 1 Y13: P 0; N 3.07e-05; F 8.82e-05
chain 1 E11: W 0; H 0.000179; L 0.000185
chain 1 P14: N 0; T 8.32e-05; F 0.000167; S 0.000163; H 4.17e-05
chain 1 K4: F 0.000173; W 0.000136; S 0.000112
chain 1 S3: R 0; F 4.71e-05; Y 0.00023
chain 1 S6: K 0; Q 4.7e-05
chain 1 A9: L 0; M 0; V 8.33e-05; T 0.000154; G 0

Variants of: B5
Assay: as above
Conditions: with TLN1 PTB (TLN1 Phosphotyrosine-binding (PTB) domain, residues 309-401); bait immobilised on MaxiSorp plates (10 µg), library pre-cleared on GST, 2 h binding at 4 °C, five washes; one round per day, days 1-4; value from days 2 and 3; keep out of graded; scale: average fractional NGS count over selection days 2 and 3

Screen value, by site and new letter:
chain 1 Y12: Q 0; L 0
chain 1 A2: F 2.74e-05; V 0.000107
chain 1 L4: N 5.11e-05; K 6.56e-05; R 0
chain 1 S9: K 0
chain 1 D8: K 2.8e-05; S 4.41e-05; V 7.58e-05; M 0; H 2.4e-05
chain 1 P14: E 0; F 0; S 2.74e-05; M 0; Q 0; R 0; Y 7.88e-05
chain 1 T7: I 3.48e-05; F 3.05e-05; E 8.56e-05; R 6.19e-05; A 4.1e-05
chain 1 K10: V 7.83e-05; W 6.74e-05
chain 1 I13: D 0; Q 8.06e-05; H 7.12e-05; S 9.27e-05; Y 5.85e-05; W 0.000116; M 3.76e-05
chain 1 D3: A 4.9e-05; H 0.000117; F 9.05e-05; W 0
chain 1 F6: P 9.98e-05; M 0; S 0; G 0; A 0; Y 8.2e-05
chain 1 L11: F 0.000112; A 6.5e-05; Y 4.09e-05; W 0; S 3.91e-05
chain 1 L15: T 3.85e-05; E 6.68e-05
chain 1 E16: R 3.05e-05
